# Laboratory results from patent US20060110789.
# B1: (5)M2+TE (module 2 of DEBS with the N-terminal linker of module 5, fused to thioesterase) (protein)
# chain: MSGDNGMTEEKLRRYLKRTVTELDSVTARLREVEHRAGIAIVGMACRLPGEVDSPERLWELITSGRDSAAEVPDDRGWVPDELMASDAAGTRAHGNFMAGAGDFDAAFFGISPREALAMDPQQRQALETTWEALESAGIPPETLRGSDTGVFVGMSHQGYATGRPRPEDGVDGYLLTGNTASVASGRIAYVLGLEGPALTVDTACSSSLVALHTACGSLRDGDCGLAVAGGVSVMAGPEVFTEFSRQGALSPDGRCKPFSDEADGFGLGEGSAFVVLQRLSDARREGRRVLGVVAGSAVNQDGASNGLSAPSGVAQQRVIRRAWARAGITGADVAVVEAHGTGTRLGDPVEASALLATYGKSRGSSGPVLLGSVKSNIGHAQAAAGVAGVIKVLLGLERGVVPPMLCRGERSGLIDWSSGEIELADGVREWSPAADGVRRAGVSAFGVSGTNAHVIIAEPPEPEPVPQPRRMLPATGVVPVVLSARTGAALRAQAGRLADHLAAHPGIAPADVSWTMARARQHFEERAAVLAADTAEAVHRLRAVADGAVVPGVVTGSASDGGSVFVFPGQGAQWEGMARELLPVPVFAESIAECDAVLSEVAGFSVSEVLEPRPDAPSLERVDVVQPVLFAVMVSLARLWRACGAVPSAVIGHSQGEIAAAVVAGALSLEDGMRVVARRSRAVRAVAGRGSMLSVRGGRSDVEKLLADDSWTGRLEVAAVNGPDAVVVAGDAQAAREFLEYCEGVGIRARAIPVDYASHTAHVEPVRDELVQALAGITPRRAEVPFFSTLTGDFLDGTELDAGYWYRNLRHPVEFHSAVQALTDQGYATFIEVSPHPVLASSVQETLDDAESDAAVLGTLERDAGDADRFLTALADAHTRGVAVDWEAVLGRAGLVDLPGYPFQGKRFWLLPDRTTPRDELDGWFYRVDWTEVPRSEPAALRGRWLVVVPEGHEEDGWTVEVRSALAEAGAEPEVTRGVGGLVGDCAGVVSLLALEGDGAVQTLVLVRELDAEGIDAPLWTVTFGAVDAGSPVARPDQAKLWGLGQVASLERGPRWTGLVDLPHMPDPELRGRLTAVLAGSEDQVAVRADAVRARRLSPAHVTATSEYAVPGGTILVTGGTAGLGAEVARWLAGRGAEHLALVSRRGPDTEGVGDLTAELTRLGARVSVHACDVSSREPVRELVHGLIEQGDVVRGVVHAAGLPQQVAINDMDEAAFDEVVAAKAGGAVHLDELCSDAELFLLFSSGAGVWGSARQGAYAAGNAFLDAFARHRRGRGLPATSVAWGLWAAGGMTGDEEAVSFLRERGVRAMPVPRALAALDRVLASGETAVVVTDVDWPAFAESYTAARPRPLLDRIVTTAPSERAGEPETESLRDRLAGLPRAERTAELVRLVRTSTATVLGHDDPKAVRATTPFKELGFDSLAAVRLRNLLNAATGLRLPSTLVFDHPNASAVAGFLDICCAGTAAISGPHEFTRLAGALRGIAPVRAVPQPGYEEGEPLPSSMAAVAAVQADAVIRTQGDKPFVVAGHSAGALMAYALATELLDRGHPPRGVVLIDVYPPGHQDAMNAWLEELTATLFDRETVRMDDTRLTALGAYDRLTGQWRPRETGLPTLLVSAGEPMGPWPDDSWKPTWPFEHDTVAVPGDHFTMVQEHADAIARHIDAWHHHHHH
# Biological target: diketide-ACP4(Ø) (DEBS ACP4 without linker, loaded with diketide), Q03132
# Sequence (Q03132 other isoform, or with tags, fused parts or gaps): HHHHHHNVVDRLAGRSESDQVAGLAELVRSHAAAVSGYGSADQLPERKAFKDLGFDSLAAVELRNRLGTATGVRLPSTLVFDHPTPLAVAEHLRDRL
protein,measurement,value
B1,"kcat/KM, fold decrease against diketide-ACP4(4) with the same module",the kcat/KM values drop approximately 70-300 fold
